Reference: publication PMC3637229, “Differential Translation of Dazap1 Transcripts during Spermatogenesis”

T1: His-DAZL (Mus musculus, UniProt Q64368 1-298)
T1 sequence: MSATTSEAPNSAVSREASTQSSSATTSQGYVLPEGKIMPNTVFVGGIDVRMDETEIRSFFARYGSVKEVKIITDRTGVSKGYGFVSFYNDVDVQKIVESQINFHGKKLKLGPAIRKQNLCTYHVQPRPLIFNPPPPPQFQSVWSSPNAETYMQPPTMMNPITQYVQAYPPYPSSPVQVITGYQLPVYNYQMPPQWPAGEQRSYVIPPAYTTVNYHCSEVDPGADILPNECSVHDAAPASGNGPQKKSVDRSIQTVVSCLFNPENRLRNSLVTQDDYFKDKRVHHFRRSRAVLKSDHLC

B1: Dazap1 3'UTR C region (ssRNA)
RNA: AGGGUUUAAAAAACGCCUUCAGCUUUAAUUCAGAAUUUCAGGUUUCUUUUUCUUCUUCCUUUUUUUUCCUUUUUUUGAGAUUAUUUUCUUGAGCCUUUUGUUUUAUGGUAUAUUGUAAACUUUUAUGUUAAAGAAAAAAUAUACAUUUACAAAUUGUGAGAUUUUUAAGAGAAAUUUUCUACAAUGUAUACUGGCUUAUUUUUUAAUUUAAAGCAGGGUUCGGGUG

What was measured:
His-DAZL [1] = target: T1, His-DAZL; assay: EMSA; heparin, yeast tRNA; EMSA: 1 ug DAZL in 10 ul, 20 mM Tris pH 7.4, 2.5 mM MgCl2, 60 mM KCl, 1 mM DTT, 5% glycerol, RT, then 5 mg/ml heparin + 0.5 mg/ml yeast tRNA; pull-down: 20 mM Tris-HCl pH 7.4, 2.5 mM MgCl2, 120 mM KCl, 1 mM DTT, 5% glycerol, RT, 5 mg/ml heparin; conditions: protein: recombinant; tags: His (pET-28a); label: 32P (gel shift)
His-DAZL [2] = target: T1, His-DAZL; assay: competition; cold C_40 1, 5, 10 ng vs labeled CU_40; EMSA: 1 ug DAZL in 10 ul, 20 mM Tris pH 7.4, 2.5 mM MgCl2, 60 mM KCl, 1 mM DTT, 5% glycerol, RT, then 5 mg/ml heparin + 0.5 mg/ml yeast tRNA; pull-down: 20 mM Tris-HCl pH 7.4, 2.5 mM MgCl2, 120 mM KCl, 1 mM DTT, 5% glycerol, RT, 5 mg/ml heparin; conditions: protein: recombinant; tags: His (pET-28a)

Row | Binder | binding result (His-DAZL [1]) | binding result (His-DAZL [2])
1 | B1 | binds | 
2 | AGGUUUCUUUUUCUUCUUCCUUUUUUUUCCUUUUUUUGAG (ssRNA) [CU_40] | binds | 
3 | AGGGUUUAAAAAACGCCUUCAGCUUUAAUUCAGAAUUUCAGGU (ssRNA) [C_40] |  | no binding
